The target in assay [1] is T1, human transferrin receptor (BIAcore, construct not stated) (human, UniProt P02786 89-760).
T1 construct: also called huTfR
The experiment in a line: SPR, 25 C. In general terms: Surface plasmon resonance follows binding to a sensor surface in real time, without labels.

Assay [2] has as its target T2, biotinylated human transferrin receptor (human, UniProt P02786 89-760, limits assumed, biotinylated (mono-biotinylated in Example 13)).
T2 construct: also called human transferrin receptor-biotinylated; mono-biotinylated human transferrin receptor
As to the kind of experiment: SPR BIAcore B4000, biotinylated TfR captured, 25 C. How it is done:
A CAP sensor chip (provided in the Biotin CAPture Kit, series S #28-9202-34 GE) was mounted into a BIAcore B4000 system, normalized and addressed in a hydrodynamic manner, according to the manufacturer's instructions. In the first cycle the CAP reagent (as provided in the Kit) was addressed to spot 1, 2, 4 and 5 with a flow rate of 10 μL/min for 300 sec. The human transferrin receptor capture took place in spot 1 (human transferrin receptor-biotinylated) and spot 5 (cynomolgus transferrin receptor-biotinylated) with a flow rate of 10 μL/min and a contact time of 30 sec. The receptors were diluted to a concentration of 50 nM with running buffer (1×PBS #28995084, GE Healthcare, supplemented with 0.25 M NaCl). The antibodies were injected into all flow cells in a concentration series of 100 nM, 50 nM, 25 nM and 0 nM for 180 sec at a flow speed of 30 μL/min. Dissociation time was set to 300 sec. Regeneration of the whole complex from the CAP chip has been performed utilizing the regeneration solution provided in the Biotin CAPture Kit (120 sec with a flow rate of 10 μL/min). To control the active protein concentration a second cycle was performed in spot 5 utilizing biotinylated protein A (#P2165-2MG, Sigma) with a flow rate of 10 μL/min and a contact time of 30 sec. Spot 1 was kept empty in this control cycle. The antibodies and the regeneration were handled like in cycle 1. Relevant kinetic data was calculated using the BIAcore B4000 evaluation software. The dissociation from the human transferrin receptor has been determined applying the 1:1 dissociation fit.

T2 sequence (P02786 89-760 limits assumed): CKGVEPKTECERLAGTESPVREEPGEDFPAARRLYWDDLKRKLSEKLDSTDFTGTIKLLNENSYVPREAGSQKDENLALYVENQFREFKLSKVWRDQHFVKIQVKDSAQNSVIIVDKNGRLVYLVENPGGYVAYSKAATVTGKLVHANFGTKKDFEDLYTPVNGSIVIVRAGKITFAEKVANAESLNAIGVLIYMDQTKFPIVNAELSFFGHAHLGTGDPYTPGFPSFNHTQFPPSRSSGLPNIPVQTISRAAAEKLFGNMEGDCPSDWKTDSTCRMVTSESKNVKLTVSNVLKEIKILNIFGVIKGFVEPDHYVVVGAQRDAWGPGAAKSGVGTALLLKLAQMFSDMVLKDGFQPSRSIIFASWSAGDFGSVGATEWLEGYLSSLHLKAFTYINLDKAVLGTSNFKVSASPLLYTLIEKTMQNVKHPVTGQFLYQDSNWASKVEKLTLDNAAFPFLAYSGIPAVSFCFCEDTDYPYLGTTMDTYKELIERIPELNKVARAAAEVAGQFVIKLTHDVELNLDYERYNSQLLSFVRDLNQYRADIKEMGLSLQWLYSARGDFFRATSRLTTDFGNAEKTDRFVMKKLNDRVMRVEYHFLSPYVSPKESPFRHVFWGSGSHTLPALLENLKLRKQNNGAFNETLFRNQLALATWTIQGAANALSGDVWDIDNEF
T1 sequence (P02786 89-760): as the sequence (P02786 89-760 limits assumed) above

B1: clone 299 VH 12 / VL 0 (rb) (antibody, V domains shown)
VH: QVQLQESGPGLVKPSETLSLTCTVSGFSLSSYAMSWIRQPPGKGLEWIGYIWSGGSTDYNPSLKSRVTISVDTSKNQFSLKLSSVTAADTAVYYCARRYGTSYPDYGDANGFDPWGQGTLVTVSS
VL: AYDMTQTPASVEVAVGGTVTIKCQASQSISSYLSWYQQKPGQRPKLLIYRASTLASGVSSRFKGSGSGTQFTLTISGVECADAATYYCQQCYSSSNVDNTFGGGTEVVVK
With B1, the koff (as a rule, the first-order rate constant of dissociation) in assay [1] came out at 0.000921 s⁻¹.

B2: clone 299 VH 11 / VL 0 (rb) (antibody, V domains shown)
VH: QQLLESGGGLVQPGGSLRLSCAASGFSLSSYAMSWVRQAPGKGLEWVGYIWSGGSTDYADSVKGRFTISRDNSKNTLYLQMNSLRAEDTAVYYCARRYGTSYPDYGDANGFDPWGQGTLVTVSS
VL: AYDMTQTPASVEVAVGGTVTIKCQASQSISSYLSWYQQKPGQRPKLLIYRASTLASGVSSRFKGSGSGTQFTLTISGVECADAATYYCQQCYSSSNVDNTFGGGTEVVVK
As for B2, the off-rate (koff) in assay [1] came to 0.000905 s⁻¹.

B3: clone 299 VH 23-DANG / VL 0 (rb) (antibody, V domains shown)
VH: QSMQESGPGLVKPSQTLSLTCTVSGFSLSSYAMSWIRQHPGKGLEWIGYIWSGGSTDYASWAKSRVTISKTSTTVSLKLSSVTAADTAVYYCARRYGTSYPDYGDANGFDPWGQGTLVTVSS
VL: AYDMTQTPASVEVAVGGTVTIKCQASQSISSYLSWYQQKPGQRPKLLIYRASTLASGVSSRFKGSGSGTQFTLTISGVECADAATYYCQQCYSSSNVDNTFGGGTEVVVK
Turning to B3, the koff in assay [1] worked out at 0.000338 s⁻¹.

B4: clone 299 VH 5 / VL 0 (rb) (antibody, V domains shown)
VH: QSMEETGGGLIQPGGSLRLSCAASGFSLSSYAMSWVRQAPGKGLEWVGYIWSGGSTDYADSVKGRFTISRDNSKNTLYLQMNSLRAEDTAVYYCARRYGTSYPDYGDANGFDPWGPGTLVTVSS
VL: AYDMTQTPASVEVAVGGTVTIKCQASQSISSYLSWYQQKPGQRPKLLIYRASTLASGVSSRFKGSGSGTQFTLTISGVECADAATYYCQQCYSSSNVDNTFGGGTEVVVK
As to B4, the dissociation rate constant (koff) in assay [1] is 0.000772 s⁻¹.

B5: clone 299 VH 18 / VL 0 (rb) (antibody, V domains shown)
VH: QVQLQESGPGLVKPSQTLSLTCTVSGFSLSSYAMSWIRQHPGKGLEWIGYIWSGGSTDYAPSLKSRVTISVDTSKNQFSLKLSSVTAADTAVYYCARRYGTSYPDYGDANGFDPWGQGTLVTVSS
VL: AYDMTQTPASVEVAVGGTVTIKCQASQSISSYLSWYQQKPGQRPKLLIYRASTLASGVSSRFKGSGSGTQFTLTISGVECADAATYYCQQCYSSSNVDNTFGGGTEVVVK
Regarding B5, the koff in assay [1] is 0.00109 s⁻¹.

B6: clone 299 VH 7 / VL 0 (rb) (antibody, V domains shown)
VH: QQLVETGGGLIQPGGSLRLSCAASGFSLSSYAMSWVRQAPGKGLEWIGYIWSGGSTDYASWAKGRFTISRDNSKNTLYLQMNSLRAEDTAVYYCARRYGTSYPDYGDANGFDPWGQGTLVTVSS
VL: AYDMTQTPASVEVAVGGTVTIKCQASQSISSYLSWYQQKPGQRPKLLIYRASTLASGVSSRFKGSGSGTQFTLTISGVECADAATYYCQQCYSSSNVDNTFGGGTEVVVK
In turn, B6 yielded a koff in assay [1] of 0.000515 s⁻¹.

B7: clone 299 VH 1 / VL 0 (rb) (antibody, V domains shown)
VH: VQLVETGGGLIQPGGSLRLSCAASGFSLSSYAMSWVRQAPGKGLEWVGYIWSGGSTDYADSVKGRFTISRDNSKNTLYLQMNSLRAEDTAVYYCARRYGTSYPDYGDANGFDPWGQGTLVTVSS
VL: AYDMTQTPASVEVAVGGTVTIKCQASQSISSYLSWYQQKPGQRPKLLIYRASTLASGVSSRFKGSGSGTQFTLTISGVECADAATYYCQQCYSSSNVDNTFGGGTEVVVK
In assay [1], B7 returned a koff of 0.000908 s⁻¹.

B8: clone 299 VH 9 / VL 0 (rb) (antibody, V domains shown)
VH: QQLLESGGGLVQPGGSLRLSCAASGFTFSSYAMSWVRQAPGKGLEWVGYIWSGGSTDYADSVKGRFTISRDNSKNTLYLQMNSLRAEDTAVYYCAKRYGTSYPDYGDANGFDPWGQGTLVTVSS
VL: AYDMTQTPASVEVAVGGTVTIKCQASQSISSYLSWYQQKPGQRPKLLIYRASTLASGVSSRFKGSGSGTQFTLTISGVECADAATYYCQQCYSSSNVDNTFGGGTEVVVK
B8 returned an off-rate constant (koff) in assay [1] of 0.000901 s⁻¹.

B9: clone 299 VH 15 / VL 9-NYA (antibody, V domains shown)
VH: QQLQESGPGLVKPSETLSLTCTVSGFSLSSYAMSWVRQPPGKGLEWIGYIWSGGSTDYNPSLKSRVTISVDTSKNQVSLKLSSVTAADTAVYYCARRYGTSYPDYGDANGFDPWGQGTLVTVSS
VL: AIQLTQSPSSLSASVGDRVTITCRASQSISSYLAWYQQKPGKAPKLLIYRASTLASGVPSRFSGSGSGTDFTLTISSLQPEDFATYYCQQNYASSNVDNTFGGGTKVEIK
The molecule B9 yielded a koff in assay [1] of 0.00142 s⁻¹.

B10: clone 299 VH 16 / VL 9-NYA (antibody, V domains shown)
VH: QQLQESGPGLVKPSETLSLTCTVSGFSLSSYAMSWVRQPPGKGLEWIGYIWSGGSTDYNPSLKSRVTISVDTSKNQVSLKLSSVTAADTAVYYCARRYGTSYPDYGDANGFDPWGPGTLVTVSS
VL: AIQLTQSPSSLSASVGDRVTITCRASQSISSYLAWYQQKPGKAPKLLIYRASTLASGVPSRFSGSGSGTDFTLTISSLQPEDFATYYCQQNYASSNVDNTFGGGTKVEIK
As to B10, in assay [1], the dissociation rate constant (koff) came to 0.00136 s⁻¹.

B11: clone 299 VH 20 / VL 9-NYA (antibody, V domains shown)
VH: QSMQESGPGLVKPSQTLSLTCTVSGFSLSSYAMSWIRQHPGKGLEWIGYIWSGGSTDYAPSLKSRVTISVDTSKNQVSLKLSSVTAADTAVYYCARRYGTSYPDYGDANGFDPWGQGTLVTVSS
VL: AIQLTQSPSSLSASVGDRVTITCRASQSISSYLAWYQQKPGKAPKLLIYRASTLASGVPSRFSGSGSGTDFTLTISSLQPEDFATYYCQQNYASSNVDNTFGGGTKVEIK
Take B11: in assay [1], the koff came out at 0.00189 s⁻¹.

B12: VH23-DANG / VK6-SYS (antibody, V domains shown)
VH: QSMQESGPGLVKPSQTLSLTCTVSGFSLSSYAMSWIRQHPGKGLEWIGYIWSGGSTDYASWAKSRVTISKTSTTVSLKLSSVTAADTAVYYCARRYGTSYPDYGDANGFDPWGQGTLVTVSS
VL: AIQLTQSPSSLSASVGDRVTITCRASQSISSYLSWYQQKPGKAPKLLIYRASTLASGVPSRFSGSGSGTDFTLTISSLQPEDFATYYCQQSYSSSNVDNTFGGGTKVEIK
Regarding B12, the off-rate constant (koff) in assay [2] came out at 0.0132 s⁻¹.

B13: clone 299 VH 21 / VL 9-NYA (antibody, V domains shown)
VH: QSMQESGPGLVKPSQTLSLTCTVSGFSLSSYAMSWIRQHPGKGLEWIGYIWSGGSTDYASWAKSRVTISVDTSKNQVSLKLSSVTAADTAVYYCARRYGTSYPDYGDANGFDPWGQGTLVTVSS
VL: AIQLTQSPSSLSASVGDRVTITCRASQSISSYLAWYQQKPGKAPKLLIYRASTLASGVPSRFSGSGSGTDFTLTISSLQPEDFATYYCQQNYASSNVDNTFGGGTKVEIK
Turning to B13, the koff in assay [1] is 0.00113 s⁻¹.

B14: clone 299 VH 22 / VL 9-NYA (antibody, V domains shown)
VH: QSMQESGPGLVKPSQTLSLTCTVSGFSLSSYAMSWVRQHPGKGLEWIGYIWSGGSTDYASWAKSRVTISVDTSKNQVSLKLSSVTAADTAVYYCARRYGTSYPDYGDANGFDPWGQGTLVTVSS
VL: AIQLTQSPSSLSASVGDRVTITCRASQSISSYLAWYQQKPGKAPKLLIYRASTLASGVPSRFSGSGSGTDFTLTISSLQPEDFATYYCQQNYASSNVDNTFGGGTKVEIK
B14 had a dissociation rate constant (koff) in assay [1] of 0.00126 s⁻¹.

B15: clone 299 VH 19 / VL 9-NYA (antibody, V domains shown)
VH: QSMQESGPGLVKPSQTLSLTCTVSGFSLSSYAMSWIRQHPGKGLEWIGYIWSGGSTDYAPSLKSRVTISVDTSKNQFSLKLSSVTAADTAVYYCARRYGTSYPDYGDANGFDPWGQGTLVTVSS
VL: AIQLTQSPSSLSASVGDRVTITCRASQSISSYLAWYQQKPGKAPKLLIYRASTLASGVPSRFSGSGSGTDFTLTISSLQPEDFATYYCQQNYASSNVDNTFGGGTKVEIK
As for B15, the off-rate constant (koff) in assay [1] is 0.00617 s⁻¹.

B16: VH23-DANG / VK2-SYS (antibody, V domains shown)
VH: QSMQESGPGLVKPSQTLSLTCTVSGFSLSSYAMSWIRQHPGKGLEWIGYIWSGGSTDYASWAKSRVTISKTSTTVSLKLSSVTAADTAVYYCARRYGTSYPDYGDANGFDPWGQGTLVTVSS
VL: DIQMTQSPSSLSASVGDRVTITCRASQSISSYLNWYQQKPGKAPKLLIYRASTLASGVPSRFSGSGSGTDFTLTISSLQPEDFATYYCQQSYSSSNVDNTFGGGTKVEIK
For the molecule B16, the koff in assay [2] stood at 0.00522 s⁻¹.

B17: clone 299 VH 17 / VL 9-NYA (antibody, V domains shown)
VH: QQLQESGPGLVKPSETLSLTCTVSGFSLSSYAMSWVRQPPGKGLEWIGYIWSGGSTDYNPSLKSRVTISKDTSKNQVSLKLSSVTAADTAVYYCARRYGTSYPDYGDANGFDPWGPGTLVTVSS
VL: AIQLTQSPSSLSASVGDRVTITCRASQSISSYLAWYQQKPGKAPKLLIYRASTLASGVPSRFSGSGSGTDFTLTISSLQPEDFATYYCQQNYASSNVDNTFGGGTKVEIK
In assay [1], B17 came in with an off-rate constant (koff) of 0.000934 s⁻¹.

B18: VH23-DANG / VK12-HYS (antibody, V domains shown)
VH: QSMQESGPGLVKPSQTLSLTCTVSGFSLSSYAMSWIRQHPGKGLEWIGYIWSGGSTDYASWAKSRVTISKTSTTVSLKLSSVTAADTAVYYCARRYGTSYPDYGDANGFDPWGQGTLVTVSS
VL: DIQMTQSPSSLSASVGDRVTITCRASQSISSYLAWYQQKPGKAPKLLIYRASTLASGVPSRFSGSRSGTDFTLTISSLQPEDFATYYCQQHYSSSNVDNTFGGGTKVEIK
Molecule B18 came in with a koff in assay [2] of 0.0153 s⁻¹.
